Residue numbers refer to the chain shown, from its start. Numbers in names are those of the source.
B1: Catabolite Activator Protein (CAP) of Escherichia coli, wild-type (natural protein, UniProt P0ACJ8 1-210, looked up)
chain: MVLGKPQTDPTLEWFLSHCHIHKYPSKSTLIHQGEKAETLYYIVKGSVAVLIKDEEGKEMILSYLNQGDFIGELGLFEEGQERSAWVRAKTACEVAEISYKKFRQLIQVNPDILMRLSAQMARRLQVTSEKVGNLAFLDVTGRIAQTLLNLAKQPDAMTHPDGMQIKITRQEIGQIVGCSRETVGRILKMLEDQNLISAHGKTIVVYGTR
notes: also called CAP wild-type
B2: CAP V140A (natural protein, Escherichia coli, UniProt P0ACJ8 1-210, looked up)
chain: B1 chain with V140A
B3: CAP V132A (natural protein, Escherichia coli, UniProt P0ACJ8 1-210, looked up)
chain: B1 chain with V132A
B4: CAP V132L (natural protein, Escherichia coli, UniProt P0ACJ8 1-210, looked up)
chain: B1 chain with V132L
B5: CAP V140L (natural protein, Escherichia coli, UniProt P0ACJ8 1-210, looked up)
chain: B1 chain with V140L
B6: CAP H160L (natural protein, Escherichia coli, UniProt P0ACJ8 1-210, looked up)
chain: B1 chain with H160L

Target: the molecule itself
Assay: crystal structure; homodimer in crystals grown at pH 6.5 with 7-10% PEG 3350, 15-20% 2-methyl-2,4-pentanediol and 2 mM cAMP; cAMP-bound protein

Binding result, binds:
B1
B2
B3
B4
B5
B6

Reference: PMC3769225, “Modulation of Global Low-Frequency Motions Underlies Allosteric Regulation: Demonstration in CRP/FNR Family Transcription Factors” (PLoS Biology, 2013)
